Data on 20 sequences can be found in a protein production outcome set (Wang et al. 2014).

The series is described as follows: label from the status in PepcDB records.
As for “MTTLYANVYLLSTPQGRLLLDTGTVNHAPAFARLLRSFDPDAVVVTHSHIDHAGNAFLAARLGYPVLAHPLEHDRLLGHDLSMPYPAGQPGVGRLVSRLHPRPGAERLGALYPGDTVRGWEVVHLPGHTDGQIGLQRDGVLLAADAVLSHPRTGAHLPREGYNWDHAVALQTLKKVADLDLHTVLPGHGRALDMAQVRARAVRDDEPGDRAEDAA”, the protein production entry is recorded as “failed”.

“PAIDYKTAFHLAPIGLVLSRDRVIEDCNDELAAIFRCARADLIGRSFEVLYPSSDEFERIGERISPVMIAHGSYADDRIMKRAGGELFWCHVTGRALDRTAPLAAGVWTFEDLSATRRVA”: the protein production entry is listed as “not failed”.

Take “SSSSCTVTTGTLGFGDKFKRPIGSWECSVCCVSNNAEDNKCVSCMSEKPG”: the protein production result is “not failed”. “MSKPKIAIIVGSTRAARFADVPTQWIAKIAKSHADIDVEVVDLRDFPLPFFDEVASSAWVPSTNEVAQRWQKKVAEFDGFIFTAAEYNHGPTAVLKNAIDYAANEWNKKPAGFVGYGSVGGARAVEQLRLHAVELQMAPVKSAVHIAWGDFLAVRQGEKKLEDLDHLNQAASALVNDVAWWAKALKKARAADVVDEEIKAA”: the protein production result was “failed”. To “MSKPEFIARQGRKPTGWLGHIVARVMARETRPENDRALSFLDLADGDSLIDIGCGHGETLFQADRIVRLSGSVGVDFSEVMLKRARARNRDAVWDTRMAFHCADTAALPFPDKRFGKALSVHTIYFWPNPAAHLAEAFRVLRRGGRFLFCYRSTADRRAVEEFPDTVYRFPSVQEVEEKLKLVGFLGPETTTEDIKGLEHHHHHH” belongs “failed”; to “MLPIAPCARQAVHRQCGGMQNSAAARKLHAVLPRTLDTARIARRSSMFLRRNGLSLCLLALTIFFIGCQVYAGLHAYNDELREQGQPTLLLSAYLHSPHFMSALFENWESEFLQMGMYVLLTVKLRQVGSAESRPLDPTEETVEIKSGPTPWPVRAGGVWRRLYDHSLAIAFAALFLMSFALHLVGSWRLEVTERAQKGLPPITVLEHFTSASFWFESMQNWQSEFLAVFSLVVLTIWLRQKDSPQSKPVEAPHSQTGG”, “failed”; to “MKPSCRPGAALEADRCPSFPDRSAATPHRGLAWAMAVVLIGGCATTRDIEQLQTTSQREPTNAQLKLKYMDERDRQVKDLLDGADRLRLIHDFDRAQVLLLQALRLDPGNERGRRIAAAIDVDRRNGAVLQEAERMMARGSYDGAAERVERVLAETPNDAGALRLYREISEKRRLQKQAAEEKNAAASIMRKPVSLQFRDANVRMVFEALSRTTGLSVIFDRDVRVDLKTTIFVSNASLEDTVDMILLQNQLAKKVLNANTVFIYPATPAKQQEYQDLKVRTFQLSNTDAKHIDTLLKNLLKIKEIVTDERANTVSIRATPETIRVAERMIAAQDLPEPEVMLEVEVLEVSRDRLTDLGIDWPNSFSLGTPSSASTWGALHHLTVNQLTASGLSVTANLKLTDTDANLLASPRIRTRNKEKAKILIGDKVPVISSSSVPSTSGPVYSQSIQYLDVGIKLEVEPQVYRDNDVGIKMSLEVSNITQIISSSNAQTGLSSLAYQIGTRNASTTLRLKDGETQILGGLIQDEDRDAANKVPGLGQLPVLGRLFSNHNGDHKKTEIVLQITPHIVRPQLAADADTREIWSGTDSTVRTEQLRLDPPGVAAPATPAAPAAPAAALPAPAAGVAVVSPGAVGGGTTGGEQTPKAAAPAAAGGVVPPNGAFGQPPAAPRTTPPPAMFGGRFMTTVPPPEGVVPPAPPAPAAAPAAVAAPAAAAPAAPAAGTAGPEAAAAVSPTEAAPPAPAPAAPYTPAPAAPAAAPPAASPPPIVPTPPSDMPSDNPLHPIPTGAY”, “failed”. Turning to “MVRVCACLIVKNEAAHLARCLGSVQPWVDDIVVVDTGSTDETPAIARQFTERLFTFPWQDDFAAARNYSLEQATGDWILVIDADEVLVTLQEPPVPLGQQLAGSPFTAYQLLRREIGTGEQFSDFAIVRLFRNLPTLRYQGRFHEQLVSTAAAPLTIGTLETLRIDHYGYQPAQIQAKMRDRNIPILERIRASEGLPLHLLFALADMYQAVNNPVEAENCYQELFDRLLPHLLSGQLPENAPGALPEILNQLGRRLLATGDHDTLQLLCQQGLAWFPTYPPLNDLAGRWLMTLGFPLGATAYFEYCLELGRTNGYSKQMIFPLGYVREIAAEQLGRAYEALGDRERAAAAFAQAAALRQGKAHPQLEHHHHHH”, the protein production entry was “not failed”. Next, “MLKTVKLYARKAWNWLTSMRTALALLFLLAIAAIPGALLPQRSLNESNVIEYIENNGKLAEFYDKIQLFDVFSSTWFTAIYVLLLISLVGCILPRSWEHYKAMRAPVVRAPRNLERLAHNGEGLVEKREEEVEKDARKLLKGWKITEYSAEEDRAGVRSIAAEKGYTRELFNLIFHLGIVGMIVTAGLGRLFYYEGHVIVVTDGEQNQQNSVFCNTATANYDSFRAGANFDGTGLTTFCFEAHDFSADYLANGQAEMFRSNISYAVGDDIQNDPETWEDYELRVNHPLRIEGDRVYLQGHGFAPTFTVTWPNGETRTQTVQWRPDDPTFFLSSGVVRFDPPAGMYPDLYERRQNQLAIQGLFAPTAEWEGDNNELLTSSYPAMRDPAVAIDIYRGDNGLDTGIGQSLFSLDSSLMHSGVLQKIERVNLQIGDTVTLDDGTTVSFDGASEFANYQISRDPTQNWVLVTTVISLVSLVGSLMIRRRRIWVRFYPQENGTTRVETGGLARTDRAGWGGEYEKFHRELLGLKEEDEDEEYFDHDD”: “failed”; “PLGVSAAGALDRASLRRANRLVGNASSAAAIESVNGGLTVEAVGDQVIAVTGAPTTLTIESPSWVGSDDDDGGARPGGKRTVPMAAPFALLDGELLTLGAPESGFRNYVAIRGGVDAPEVLGSRSADTMSGIGPAPLAIRQVLATGEQTASTAVGAPELQPDFPGAGVTVLDVVPGPRADWFDQEALDSLCNQEWLVTPQSNRVGMRLDGKPLERTREGELPSEGTMAGALQIPPAGLPVLFLADHPITGGYPVIGVVRDEHLDRAAQVPIGGRIRFRLVPDSADFTTTTTKTPEK”: “not failed”; “MQMLRNLSTRTRSRRGGYERVSDDSTFSLLGAKLRRSTSVPYYAPSIRLGGDFPVILEKLPRQKPTKTVVTSKLSHPIFSLFDGYRRHNKKKATAKPEFSRYHEYLKESGMWDLRSNSPVIYFK”: “failed”.

Take “LAPPRHLGFSDVSHDAARVFWEGAPRPVRLVRVTYVSSEGGHSGQTEAPGNATSAMLGPLSSSTTYTVRVTCLYPGGGSSTLTGRVTTKKAPSPS”: the protein production result is “not failed”. In the case of “MHNAGKQVAAPLETPMPAATAALLAERADHPLYVASVEKGMRVLEAFDAARDSLSLTDIVQLTGMGKSAAQRFTHTWEALGYLAKDPQSRRYRLGPKVVELSYYFLRSDHLVSLAAPHLVALREHCGLAVNMSVLSGDDMIYLLRLPSRQLTLVEMLPGRRMPAWSNSAGRMLLSQRDDASVRDLLARAAPQLYTPRTQTDPQALLAEIRQAREDGYAITQDQVLLNQMGVATLLRDERRQPLAAISVTAAADEYPRARLVAEIVPQMLKAAYAICGA”, the protein production result is on record as “failed”. Take “MMLSSNSFSLNLSNEDYIWPLEEDQEETTDSSGPMMLSPPLPEGACFNFEDRNTVYVHSRRPEDTPKSFELYSIPEDLALDSPFPSCEQTTFFTTKPDKSFLLDIKNSSPLNIGRMQNSRS”: the protein production entry is on record as “not failed”. Next, “MVDINRRGALGSLLAGAGLAALPASAEAAQMGLLPAKPTSGPTWTTGIEGQRKADLGDGTFLNPILTGDRPDPSILKDGADYYMTHSSFDAYPGLLIWHSRDLVNWTPVTTTLKTNVGSIWAPELCKHKGRYYIYLPAKFPGNNTSYVIWADKIEGPWSEPIDLKLPRYIDPGHIVDEAGERWLFLSGGDRIKLAPDGLSTVGKPEHVYDPWRYPDDWDVEGFSPEGPKLMRRGEYFYMITAVGGTAGPPTGHMVIAARAKSLAGPWENHPRNPLVRTTDNAEKWWSRGHATLVEGPTPGDWWTVYHGYENGYYTLGRQTLLAPVTWTADGWFDIGGGDLSQPIKKPKGGKPGPHGMALSDDFSTDKYGVQWNFFDPKPGEQDRIKREGGVLTLKGAGEAPSTGSPLIFVNGDQAYEIECEIEIEPETRAGLILFYDRQLYCGLGFDAKNFVTHQYGIERGRPANPHGAKMLMRLRNNRHIVSFHTSGDGGKTWKRFDRGMEVSGYHHNVRGGFLMLKPGIYAAGKGSARFRGFKYRALP”: “failed”; “MKAELIAVGTEILTGQIVNTNAQFLSEKMAELGIDVYFQTAVGDNEERLLSVITTASQRSNLVILCGGLGPTKDDLTKQTLAKYLRKDLVYDEQACQKLDDFFAKRKPSSRTPNNERQAQVIEGSIPLPNKTGLAVGGFITVDGISYVVLPGPPSELKPMVNEELVPLLSKQYSTLYSKVLRFFGIGESQLVTVLSDFIENQTDPTIAPYAKTGEVTLRLSTKTE”: “failed”; “MSDSKEITKVIVTMVVISAVAAALLALTYTPTQAQLKLLQAEQQKEAMKEILPQAADFEPVTGSEVDDDGNPVVLYYKGVDSSGNVVGYVVERNQVGAQGMIQLLAGISSDFSTITGFQVMKHSETPGLGALITTPEFQGQFVDLPVADTSLTKNGGQVDAISGATISSQAVVDALHSAVDYVSAQEG”: “failed”. Next, “MGYPPIRRFEYEHRGTETFTGRSPVPCHHAGIMSLYLRKQAYGVAPMKKIILSTIAALVASGSVFASYGTAAAQDYPYRPRYDRGYDRGGPPPPPYREHRRHNDGAAIAGGLAAGVIGGLIGGAIANGNGGPRYYEPPPPPRCWFEDRRVPNAYDGGWHMESMRVCN”: “failed”; “QNYWAVFDANKETLIVQTCSGLGLTAIDHLYPPHILPLDTDNETLGTTVLQALANSRTFVYDSPEDQDFFDTEKIRQRYEDWVAKLCGNLGYKTRRALFKNMMSVDIWLHNGCLKISPSRHVKLEAWNAIDADDVILSLDNSPEEIGAGLKLALSHC”: “failed”; “MGYPPPTRRLGDKKRYHYSNNPNRRHPSAVYSKNSFPKSSNNGFVSSPTADNSTNPSVTPSTASVPLPTAAPGSTFGIEAPRPSRYDPSSVSRPSSSSYSSTRKIGSRYNPDVERSSSTTSSTPESMNTSTITHTNTDIGNSRYSRKTMSRYNPQSTSSTNVTHFPSALSNAPPFYVANGSSRRPRSMDDYSPDVTNKLETNNVSSVNNNSPHSYYSRSNKWRSIGTPSRPPFDNHVGNMTTTSNTNSIHQREPFWKANSTTILKSTHSQSSPSLHTKKFHDANKLDKPEASVKVETPSKDETKAISYHDNNFPPRKSVSKPNAPLEPDNIKVGEEDALGKKEVHKSGREIAKEHPTPVKMKEHDELEARAKKVSKINIDGKQDEIWTTAKTVASAVEVSKESQKELTRSVERKESPEIRDYERAYDPKALKTDVTKLTVDNDNKSYEEPLEKVEGCIFPLPKAETRLWELKNQKRNKIISEQKYLLKKAIRNFSEYPFYAQNKLIHQQATGLILTKIISKIKKEEHLKKINLKHDYFDLQKKYEKECEILTKLSENLRKEEIENKRKEHELMEQKRREEGIETEKEKSLRHPSSSSSSRRRNRADFVDDAEMENVLLQIDPNYKHYQAAATIPPLILDPIRKHSYKFCDVNNLVTDKKLWASRILKDASDNFTDHEHSLFLEGYLIHPKKFGKISHYMGGLRSPEECVLHYYRTKKTVNYKQLLIDKNKKRKMSAAAKRRKRKERSNDEEVEVDESKEESTNTIEKEEKSENNAEENVQPVLVQGSEVKGDPLGTPEKVENMIEQRGEEFAGELENAERVNDLKRAHDEVGEESNKSSVIETNNGVQIMDPKGAVQNGYYPEETKELDFSLENALQRKKHKSAPEHKTSYWSVRESQLFPELLKEFGSQWSLISEKLGTKSTTMVRNYYQRNAARNGWKLLVDETDLKRDGTSSESVQQSQILIQPERPNINAYSNIPPQQRPALGYFVGQPTHGHNTSISSIDGSIRPFGPDFHRDTFSKISAPLTTLPPPRLPSIQFPRSEMAEPTVTDLRNRPLDHIDTLADAASSVTNNQNFSNERNAIDIGRKSTTISNLLNNSDRSMKSSFQSASRHEAQLEDTPSMNNIVVQEIKPNITTPRSSSISALLNPVNGNGQSNPDGRPLLPFQHAISQGTPTFPLPAPRTSPISRAPPKFNFSNDPLAALAAVASAPDAMSSFLSKKENNN”: “failed”.
